In patent US20160347802A1 (MAX PLANCK GESELLSCHAFT ZUR FOERDERUNG DER WISSENSCHAFTEN E …, published 2016):
Values belong to the binder of their own block, whether it stands above or below them.

How the values were obtained:
[1] = biological target: T1, human Netrin-4, AVEXIS protein (human, UniProt Q9HB63 19-628); assay: AVEXIS, prey NTN4 on bait DRAXIN 21aa
T1 construct: not shown: AVEXIS tag (bait or prey)
T1 sequence (looked up): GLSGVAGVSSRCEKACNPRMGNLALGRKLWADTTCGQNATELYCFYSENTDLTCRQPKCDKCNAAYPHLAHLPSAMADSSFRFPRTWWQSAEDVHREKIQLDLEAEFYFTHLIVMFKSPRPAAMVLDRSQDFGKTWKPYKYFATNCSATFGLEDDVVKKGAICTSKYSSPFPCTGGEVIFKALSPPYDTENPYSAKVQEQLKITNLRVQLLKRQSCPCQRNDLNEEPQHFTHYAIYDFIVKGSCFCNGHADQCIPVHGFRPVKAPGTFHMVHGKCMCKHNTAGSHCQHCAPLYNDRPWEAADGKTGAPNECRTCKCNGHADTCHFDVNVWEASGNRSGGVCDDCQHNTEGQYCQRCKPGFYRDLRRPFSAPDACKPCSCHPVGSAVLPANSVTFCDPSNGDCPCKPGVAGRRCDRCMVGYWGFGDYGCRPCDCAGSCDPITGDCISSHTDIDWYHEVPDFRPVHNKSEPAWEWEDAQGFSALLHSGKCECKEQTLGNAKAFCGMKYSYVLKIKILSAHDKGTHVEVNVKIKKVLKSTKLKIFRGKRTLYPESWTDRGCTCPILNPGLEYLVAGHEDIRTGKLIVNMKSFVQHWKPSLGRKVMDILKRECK
Text: (§1) The Matn4-bait served as an internal prey-protein control and was used for normalization of the A486 nm values; conditioned medium (CM) serves as negative control; n=3.

[2] = biological target: T2, human Netrin-G1, AVEXIS protein (human, UniProt Q9Y2I2 29-510); assay: AVEXIS, prey on bait NTNG1; white = No binding
T2 construct: not shown: AVEXIS tag (bait or prey)
T2 sequence (looked up): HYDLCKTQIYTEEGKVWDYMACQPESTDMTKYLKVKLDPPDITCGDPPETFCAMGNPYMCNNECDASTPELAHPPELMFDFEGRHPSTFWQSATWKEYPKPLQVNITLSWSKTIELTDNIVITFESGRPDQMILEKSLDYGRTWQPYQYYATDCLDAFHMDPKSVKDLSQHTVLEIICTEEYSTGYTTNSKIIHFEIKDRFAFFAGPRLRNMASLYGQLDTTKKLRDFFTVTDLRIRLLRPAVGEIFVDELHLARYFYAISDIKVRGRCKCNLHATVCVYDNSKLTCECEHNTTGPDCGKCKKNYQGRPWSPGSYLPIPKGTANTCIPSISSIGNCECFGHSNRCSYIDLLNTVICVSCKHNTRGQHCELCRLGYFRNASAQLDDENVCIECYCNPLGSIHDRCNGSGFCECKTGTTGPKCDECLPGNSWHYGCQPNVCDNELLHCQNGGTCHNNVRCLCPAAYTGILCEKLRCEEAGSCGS
Text: as §1

[3] = biological target: T3, human DRAXIN, AVEXIS prey or bait protein (human, UniProt Q8NBI3 26-349); assay: AVEXIS, prey DRAXIN on bait DRAXIN 21aa
T3 sequence: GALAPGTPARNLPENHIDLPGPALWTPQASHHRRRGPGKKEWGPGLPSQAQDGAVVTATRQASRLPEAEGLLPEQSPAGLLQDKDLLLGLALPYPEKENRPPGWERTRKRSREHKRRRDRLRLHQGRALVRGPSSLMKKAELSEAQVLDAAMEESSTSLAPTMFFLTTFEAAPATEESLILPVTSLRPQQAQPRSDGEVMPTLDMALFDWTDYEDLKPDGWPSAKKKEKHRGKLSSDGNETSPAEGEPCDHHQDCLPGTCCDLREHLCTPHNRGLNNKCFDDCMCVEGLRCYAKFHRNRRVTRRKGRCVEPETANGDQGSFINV
Text: as §1

[4] = biological target: T3, human DRAXIN, AVEXIS prey or bait …; assay: AVEXIS, prey on bait DRAXIN; white = No binding
Text: as §1

[5] = biological target: the molecule itself; assay: AVEXIS, prey on bait DRAXIN 21aa; white = No binding
Text: as §1

[6] = biological target: T4, Matn4 ECD, mono-biotinylated bait protein (positive control); assay: AVEXIS, prey on bait Matn4 (+), positive control for the prey; dark = Binding
T4 construct: extracellular domain; also called Matn4-bait
Text: as §1

[7] = biological target: T1, human Netrin-4, AVEXIS protein; assay: AVEXIS, prey on bait NTN4; white = No binding
Text: as §1

[8] = biological target: the molecule itself; assay: AVEXIS, prey DRAXIN 21aa on bait DRAXIN 21aa
Text: as §1

[9] = biological target: T2, human Netrin-G1, AVEXIS protein; assay: AVEXIS, prey NTNG1 on bait DRAXIN 21aa
Text: as §1

[10] = biological target: T5, human Netrin1, recombinant AVEXIS protein (biotinylated when immobilised) (human, UniProt O95631 25-604); assay: AVEXIS, prey on bait NTN1; dark = Binding
T5 construct: also called NTN1
Text: as §1

[11] = biological target: T6, human Netrin-G2, AVEXIS protein (human, UniProt Q96CW9 18-507); assay: AVEXIS, prey on bait NTNG2; white = No binding
T6 construct: not shown: AVEXIS tag (bait or prey)
T6 sequence (looked up): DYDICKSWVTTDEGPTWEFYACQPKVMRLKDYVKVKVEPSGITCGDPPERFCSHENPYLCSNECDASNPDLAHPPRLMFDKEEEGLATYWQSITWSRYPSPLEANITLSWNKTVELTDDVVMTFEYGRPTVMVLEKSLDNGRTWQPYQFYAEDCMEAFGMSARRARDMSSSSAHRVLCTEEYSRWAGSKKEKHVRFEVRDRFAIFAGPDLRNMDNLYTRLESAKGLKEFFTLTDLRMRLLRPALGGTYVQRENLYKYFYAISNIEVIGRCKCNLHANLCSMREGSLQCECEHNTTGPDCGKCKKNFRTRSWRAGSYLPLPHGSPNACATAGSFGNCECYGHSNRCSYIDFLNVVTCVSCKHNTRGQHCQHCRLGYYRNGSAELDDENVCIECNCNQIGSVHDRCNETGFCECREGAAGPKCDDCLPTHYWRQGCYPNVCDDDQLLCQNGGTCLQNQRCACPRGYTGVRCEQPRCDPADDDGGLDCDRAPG
Text: as §1

[12] = biological target: T7, biotinylated recombinant human UNC5B (human, UniProt Q8IZJ1 27-377); assay: AVEXIS, prey on bait UNC5B; white = No binding
T7 construct: Made in HEK293-6E and immobilised on an SA chip
Text: as §1

[13] = biological target: T7, biotinylated recombinant human UNC5B; assay: AVEXIS, prey DRAXIN 21aa on bait UNC5B
Text: as §1

[14] = biological target: T6, human Netrin-G2, AVEXIS protein; assay: AVEXIS, prey NTNG2 on bait DRAXIN 21aa
Text: as §1

[15] = biological target: T7, biotinylated recombinant human UNC5B; assay: SPR, UNC5B immobilised, Draxin injected at 0 to 18.75nM
[16] = biological target: T5, human Netrin1, recombinant AVEXIS …; assay: SPR, Biacore 3000, biotinylated human Netrin1 on SA chip, Draxin injected at 0-18.8 nM

- binding result [1]: no binding
- A486nm [2]: 0.066
- binding result [3]: no binding
- A486nm [4]: 0.063
- A486nm [6]: 0.252
- A486nm [7]: 0.063
- binding result [9]: no binding
- A486nm [10]: 0.342
- A486nm [11]: 0.062
- A486nm [12]: 0.062
- binding result [13]: no binding
- binding result [14]: no binding
B1: human DRAXIN 21 amino acid Netrin binding fragment, AVEXIS prey or bait protein (peptide)
peptide: EVMPTLDMALFDWTDYEDLKP
notes: Tested in both bait and prey orientations; also called human 21 amino acid DRAXIN fragment; derived 21 amino acid peptide; not shown: AVEXIS tag (rat Cd4d3+4 and prey or bait module)
- A486nm [5]: 0.059
- binding result [8]: no binding

- binding result [15]: no binding (tested: 18.75 nM)
- Kd [16]: 20 to 100 nM
B2: recombinant human Draxin (R&D systems) (ligand)
chain: T3 sequence
notes: Bought protein
